Some results are limits rather than exact numbers.

One data set concerns HEK-293 cells. As to the kind of experiment: Dark and photocytotoxicity (MTT). Type of data set: cell-based, human. The note with it: for dark cytotoxicity: without light irradiation, up to 4 μM, all conditions. How it is done:
(§1) The dark- and photocytotoxicity of 1 was also investigated against all four cell lines under the different conditions as described, using 14 as a negative control. […] Without light irradiation, both 1 and 14 were noncytotoxic up to 4 μM for all conditions. Upon light irradiation (λ > 610 nm, 23 mW cm^–2, 28 J cm^–2), both conjugates however could induce a different extent of cytotoxicity. […] The results could be attributed to the intrinsic difference in the MMP-2 levels in these cells. […] The photocytotoxicity was further reduced under the dual inhibition condition, for which the IC50 values (>4 μM) also could not be determined. […] The overall results generally followed the trend of intracellular ROS generation as reported above. […]
(§2) Approximately 2 × 10^4 cells per well (100 µL) in the corresponding medium were inoculated in 96-well plates and incubated overnight at 37 °C in a humidified 5% CO 2 atmosphere. A stock solution of 1 or 14 (1 mM) was prepared as described above, which was diluted with a serum-free medium to various concentrations. The cells, after being rinsed with PBS twice, were treated with or without SB -3CT (10 μM) and/or CA -074 Me (25 μM) in the medi um (100 μL) for 2 h. The cells were further incuba ted with 100 μL of different concentrations of 1 or 14 for 1 h at 37 °C under 5% CO2. After being rinsed with PBS twice, the cells were incubated in the culture medium (100 μL) for 6 h. The cells were then rinsed with PBS and re -fed with 100 μL of a serum-containing medium before being irradiated (λ > 610 nm, 23 mW cm –2, 28 J cm– 2) at ambient temperature. Cell viability was determined by means of a colorimetric MTT assay.R7 After irradiation, the cells were incubated at 37 °C under 5% CO 2 overnight. After incubation, the medium was removed and the cell s were rinsed with PBS twice. A MTT (S igma) solution in PBS (3 mg mL -1, 50 μL) was added to each well followed by incubation for 4 h under the same environment. DMSO (100 μL) was then added to each well. Solutions in all the wells were mixed until homogenous. The absorbance at 490 nm of each w ell on the plate was […]
(§3) taken by a microplate reader (Tecan Spark 10M) at ambient temperature. The average […]
(§4) of the other wells. The cell viability was then determined by the equation: […]
(§5) where Ai is the absorbance of the ith datum (i = 1, 2, …, n), Acontrol is the average absorbance of the control wells in which the compound was absent, and n (= 4) is the number of data points. […]

Another data set relates to U-87 MG cells. As to the kind of experiment: Dark and photocytotoxicity (MTT). Type of data set: cell-based, human. The note with it: without light irradiation, up to 4 μM, all conditions. The protocol:
as §1, §2, §3, §4, §5

A further data set relates to A549 cells. As to the kind of experiment: Dark and photocytotoxicity (MTT). The note with it: without light irradiation, up to 4 μM, all conditions (with or without inhibitors). Type of data set: cell-based, human. The protocol: as §1, §2, §3, §4, §5
In another data set the test system is HeLa cells. As to the kind of experiment: Dark and photocytotoxicity (MTT). Type of data set: cell-based, human. The conditions noted are these: without light irradiation, up to 4 μM, all conditions. The protocol: as §1, §2, §3, §4, §5
Data set [1] has as its system A549 tumor-bearing nude mice. The data set is described as follows: In vivo PDT. Also on record: species or system Balb/c nude mice. The note with it: for H&E staining of major organs, Day 14 / H&E staining of tumor, Day 14 / change in body weight over 14 days: intratumoral 20 nmol + laser 680 nm, 180 J cm-2; for change in body weight over 14 days / tumor size over 14 days: n = 4; for tumor size over 14 days: intratumoral 20 nmol, laser 680 nm, 0.3 W cm-2, 10 min (180 J cm-2) at 6 h post-injection. The protocol: To further examine the in vivo PDT efficacy of 1, A549 tumor-bearing nude mice were first intratumorally injected with 1 or the non-cleavable control 14 (20 nmol) in 20 μL of distilled water containing 7.5% dimethyl sulfoxide (DMSO) and 0.5% Tween 80 (v/v). After 6 h, when the difference in tumoral fluorescence intensity was the largest between the two conjugates (Figure 7b), the tumor was irradiated with a diode laser at 680 nm (0.3 W cm^–2) for 10 min. As another negative control, another group of mice were injected with PBS only without the laser treatment. The tumor size of all mice was monitored continuously for 14 days after the different treatments.
The body weight of the mice was also monitored during the course of these treatments (Figure 7e). […] In addition, the PDT effect on the tumor and major organs was further investigated by hematoxylin and eosin (H&E) staining.
A549 tumor-bearing nude mice were prepared as described above. The length and width of the tumor were measured using a micrometer digital caliper (SCITOP Systems). The tumor volume (mm3) was calculated using the formula: tumor volume = (length × width2)/2. Once the tumors had grown to a size of 80 –100 mm3, 1 or 14 (20 nmol) dissolved in 20 μL of distilled water containing 7.5% DMSO and 0.5% Tween 80 (v/v) was injected to the tumor -bearing mice through intratu moral injection. At 6 h post-injection, the tumor was illuminated with a diode […]
The tumor size o f the nude mice was monitored periodically for the next 14 days. The tumor volumes were also compared with a PBS control group of mice without the light treatment.
Four mice were used for each group. On Day 14 after the PDT treatment, the mice were sacrificed, and the tumor and major organs were harvested. The tissues were fixed with 4% […]
and embedded in paraffin. […]

Data set [2] in a line: Fluorescence quantum yield in DMF. The note with it: excited at 610 nm, relative to ZnPc (ΦF = 0.28 in DMF). The format is physicochemical. An excerpt:
The electronic absorption and fluorescence spectra of PMB 1 were first recorded in DMF and compared with those of the components 8 and 11, as well as the non-cleavable analogue 14 (Figure S2 and Table 1). […] In contrast, the fluorescence spectra of 1 and 14 were remarkably different from that of DSBDP 8.

Take `CCN(CC)c1ccc2nc3ccc(/N=N/c4ccc(N(C)CCCNC(=O)OC[C@@H]5[C@@H]6CCc7nnn(CC(=O)NCCCC[C@@H]8NC(=O)CNC(=O)[C@H](CCCCN)NC(=O)[C@H](CCCNC(=N)N)NC(=O)[C@H](C(C)C)NC(=O)CNC(=O)[C@H](CC(C)C)NC(=O)[C@@H]9CCCN9C(=O)[C@H](CCCCN)NC(=O)[C@@H](N)CSCc9cc(COc%10ccc(C%11=C%12C(C)=C(I)C(/C=C/c%13ccc(OCCOCCOCCOC)cc%13)=[N+]%12[B-](F)(F)n%12c(/C=C/c%13ccc(OCCOCCOCCOC)cc%13)c(I)c(C)c%12%11)cc%10)cc(c9)CSC[C@@H](C(N)=O)NC(=O)[C@H](CCCCN)NC(=O)[C@H](CCCCN)NC(=O)CNC(=O)[C@H](CC(C)C)NC(=O)[C@H](Cc9ccccc9)NC(=O)CNC(=O)[C@H](CCCCN)NC(=O)CNC8=O)c7CC[C@@H]65)cc4)cc3[n+](-c3ccccc3)c2c1` [compound 1]: the IC50 in the data set on HEK-293 cells (no inhibitor, 1 h + 6 h, light λ > 610 nm, 23 mW cm-2, 28 J cm-2) was over 4 µM. For the same compound, in the data set on HEK-293 cells, the dark cytotoxicity entry was “noncytotoxic”. Further, the dark cytotoxicity entry in the data set on U-87 MG cells was “noncytotoxic”. Also, the dark cytotoxicity result in the data set with A549 cells is “noncytotoxic”. Moreover, the dark cytotoxicity entry in the data set on HeLa cells is recorded as “noncytotoxic”. Moreover, in data set [1], the “H&E staining of major organs, Day 14” value is listed as “no apparent damage”; the “H&E staining of tumor, Day 14” value was “significant cellular damage and necrosis”; the “change in body weight over 14 days” value is “negligible change”; the “tumor size over 14 days” value is reported as “greatly reduced”. In data set [2], the “ΦF (fluorescence quantum yield)” value came out at 0.01.
Take `CCN(CC)c1ccc2nc3ccc(/N=N/c4ccc(N(C)CCCNC(=O)OC[C@@H]5[C@@H]6CCc7nnn(CC(=O)NCCCC[C@@H]8NC(=O)CNC(=O)[C@H](CCCCN)NC(=O)CNC(=O)CNC(=O)CNC(=O)CNC(=O)CNC(=O)[C@H](CCCCN)NC(=O)[C@@H](N)CSCc9cc(COc%10ccc(C%11=C%12C(C)=C(I)C(/C=C/c%13ccc(OCCOCCOCCOC)cc%13)=[N+]%12[B-](F)(F)n%12c(/C=C/c%13ccc(OCCOCCOCCOC)cc%13)c(I)c(C)c%12%11)cc%10)cc(c9)CSC[C@@H](C(N)=O)NC(=O)[C@H](CCCCN)NC(=O)[C@H](CCCCN)NC(=O)CNC(=O)CNC(=O)CNC(=O)CNC(=O)[C@H](CCCCN)NC(=O)CNC8=O)c7CC[C@@H]65)cc4)cc3[n+](-c3ccccc3)c2c1` [compound 14]: the dark cytotoxicity entry with HEK-293 cells, with U-87 MG cells, with A549 cells and with HeLa cells was “noncytotoxic” throughout. Besides, the “H&E staining of major organs, Day 14” value in data set [1] was “no apparent damage”. Besides, in data set [1], the “H&E staining of tumor, Day 14” value is recorded as “no apparent damage”. In addition, the “change in body weight over 14 days” value in data set [1] is “negligible change”. The “tumor size over 14 days” value in data set [1] is listed as “grew continuously”. For the same compound, in data set [2], the “ΦF (fluorescence quantum yield)” value turned out to be 0.01.

(Values after article PMC10080691, “Enzyme-Responsive Double-Locked Photodynamic Molecular Beacon for Targeted Photodynamic Anticancer Therapy” (Journal of the American Chemical Society, 2023).)
